The source of these data is publication PMC9601230 (mBio, 2022).

Data set [1] concerns the molecule itself. The experiment in a line: SEC; analytical Superdex 75 10/300GL, 0.3 mL/min, 20 mM Tris pH 8.0, 200 mM NaCl, 0.5 mM TCEP; 100 uL of protein at 2 mg/mL loaded; calibrated with protein standards.
The target in data set [2] is T1, DrRuvC (Deinococcus radiodurans, UniProt Q9RX75 1-179).
T1 sequence: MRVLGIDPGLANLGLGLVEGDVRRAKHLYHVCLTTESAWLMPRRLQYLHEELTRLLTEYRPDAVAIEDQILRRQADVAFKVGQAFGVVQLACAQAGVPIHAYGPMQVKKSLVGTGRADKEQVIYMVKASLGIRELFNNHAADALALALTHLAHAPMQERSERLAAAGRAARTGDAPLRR
The experiment in a line: EMSA; EMSA: 100 nM 6-FAM substrate, 50 mM Tris-HCl pH 8.0, 125 mM NaCl, 10 ug/mL BSA, 1 mM TCEP, 5% glycerol, 30 C 10 min; 5% native PAGE in 0.5x Tris-borate. Conditions: protein: recombinant, tags: N-terminal His-MBP-TEV, removed by TEV, chain copies: 2, label: 5'-6-FAM on J31-1. For orientation: A gel shift assay detects complexes by their altered migration in electrophoresis.

For data set [3], the target named is T1, DrRuvC. The experiment in a line: EMSA; no obvious specific complex band; EMSA: 100 nM 6-FAM substrate, 50 mM Tris-HCl pH 8.0, 125 mM NaCl, 10 ug/mL BSA, 1 mM TCEP, 5% glycerol, 30 C 10 min; 5% native PAGE in 0.5x Tris-borate. Particulars: protein: recombinant; tags: N-terminal His-MBP-TEV, removed by TEV; chain copies: 2; label: 5'-6-FAM on J31-1; blunt, nick between J31-5 and J31-7.

B1: RuvC from Deinococcus radiodurans (enzyme, UniProt Q9RX75 1-179, looked up)
chain: T1 sequence
notes: Holliday junction resolvase RuvC, Deinococcus radiodurans, full-length gene, residues 1 to 179, amplified from genomic DNA; Expressed from pET28-HMT (His-MBP-TEV); tag removed with TEV protease, so residues of the TEV site may be left at the N-terminus; also called DrRuvC; dr0440; source: E. coli Rossetta (DE3), purified (HisTrap, TEV cleavage, HisTrap, Heparin, Superdex 75); not shown: His6, …
B1: in data set [1], the “stoichiometry N” value stood at 2.

B2: mobile HJ (HJ31) (structured_DNA)
DNA 1: GCTAGCCACAGCCATTCGTACGATTGCGGGA
DNA 2: TCCCGCAATCGTACGAAACCGAGCACGATCT
DNA 3: AGATCGTGCTCGGTTTCGTACCAGATGCCAT
DNA 4: ATGGCATCTGGTACGAATGGCTGTGGCTAGC
Regarding B2, in the data set with DrRuvC [2] (four-way junction with mobile homologous core, 4 strands), the Kd was about 150 nM.

B3: nicked duplex (dsDNA)
DNA 1: B2 DNA 1
DNA 2: TCCCGCAATCGTACG
DNA 3: AATGGCTGTGGCTAGC
Regarding B3, the Kd in the data set with DrRuvC [3] was about 408 nM.

B4: replication fork (structured_DNA)
DNA 1: B2 DNA 1
DNA 2: TCCCGCAATCGTCCGTTTCCGAGCACGATCT
DNA 3: AGATCGTGCTCGGAAA
DNA 4: AATGGCTGTGGCTAGC
As for B4, the Kd with DrRuvC [2] (three-way junction with nick at junction, 4 strands) is about 410 nM.

B5: immobile HJ (structured_DNA)
DNA 1: B2 DNA 1
DNA 2: B4 DNA 2
DNA 3: AGATCGTGCTCGGAAAGCCTGCAGATGCCAT
DNA 4: ATGGCATCTGCAGGCAATGGCTGTGGCTAGC
For B5, in the data set with DrRuvC [2] (four-way junction, 4 strands), the Kd is about 150 nM.

B6: Y-junction (structured_DNA)
DNA 1: B2 DNA 1
DNA 2: B4 DNA 2
DNA 3: AGATCGTGCTCGGAAAAATGGCTGTGGCTAGC
In the case of B6, the equilibrium dissociation constant (Kd) with DrRuvC [2] (three-way junction, 3 strands) was about 425 nM.

B7: nicked HJ (structured_DNA)
DNA 1: B2 DNA 1
DNA 2: B4 DNA 2
DNA 3: AGATCGTGCTCGGAAA
DNA 4: GCCTGCAGATGCCAT
DNA 5: B5 DNA 4
For the molecule B7, the Kd with DrRuvC [2] (3'-OH and 5'-OH at nick, four-way junction, nick in strand opposite J31-1, 5 strands) is about 150 nM.

In general, stoichiometry N refers to the number of molecules, sites or subunits per partner or assembly. Broadly, the Kd is the concentration at which binding is half-saturated.
